B1: HDV Ribozyme (parent)
chain: GGCCGGCAUGGUCCCAGCCUCCUCGCUGGCGCCGGCUGGGCAACAUUCCGAGGGGACCGUCCCCUCGGUAAUGGCGAAUGGGACCCA

Our source for the self-cleavage values is the RNAGym collection of RNA variant scans (doi:10.7554/elife.80360).

The variants in this data set derive from B1. Nature of the data set: self-cleavage, relative activity (ratio to wild type); higher = more cleavage; co-transcriptional.
In the case of GGCCGGCAUGGUCCCAGCCUCCUUGCUGGCGCCGGCUGGGCAACAUUCCGAGGGGACCGUCCCCUCGGUAAUGGCGAAUGGGACCCG, the self-cleavage was found to be 0.55.
The result for GGCCGGCAUGGUCCCAGCCUCCUUGCUGGCGCCGGCUGGGCAACAUUCCGAGGGGACCGUCCCCUCGGUAAUGGUGAAUGGGACCCA reads 0.197.
The result for GGCCGGCAUGGUCCCAGCCUCCUUGCUGGCGCCUGCUGGGCAACAUUCCGAGGGGACCGUCCCCUCGGUAAUGGCGAAUGGGACCCA reads 0.17; that for GGCCGGCAUGGUCCCAGCCUCCUUGCUGGCGCCGGCUGGGCAAGAUUCCGAGGGGACCGUCCCCUCGGUAAUGGCGAAUGGGACCCA, 0.119; that for GGCCGGCAUGGUCCCAGCCUCCUGGCUGGCGCCGGCUGGGCAACAUUCCGAGGGGACCGUCCCCUCGGUAAUGGCGAAUGGGAGCCA, 0.0811.
For GGCCGGCAUGGUCCCAGCCUCCUUGCUGGCGCCGGCUGGGCAACAUUUCGAGGGGACCGUCCCCUCGGUAAUGGCGAAUGGGACCCA, the self-cleavage came out at 0.604.
The result for GGCCGGCAUGGUCCCAGCCUCCUUGCUGGCGCCGGCUGGGCAACAUUACGAGGGGACCGUCCCCUCGGUAAUGGCGAAUGGGACCCA reads 0.692; that for GGCCGGCAUGGUCCCAGCCUCCUGGCUGGCGCCGGCUGGGCAACAUUCCGAGGGGACCGUCCCCCCGGUAAUGGCGAAUGGGACCCA, 0.224; that for GGCCGGCAUGGUCCCAGCCUCCUGGCUGGCGCCGGCUGGGCAACAUUCCGAGGGGAGCGUCCCCUCGGUAAUGGCGAAUGGGACCCA, 0.192.
The figure for GGCCGGCAUGGUCCCAGCCUCCUGGCUGGCGCCGGCUUGGCAACAUUCCGAGGGGACCGUCCCCUCGGUAAUGGCGAAUGGGACCCA is 0.0268.
The result for GGCCGGCAUGGUCCCAGCCUCCUGGCUGGCGCCGGCUGGGCAACAUUCCGAGGUGACCGUCCCCUCGGUAAUGGCGAAUGGGACCCA reads 0.183.
GGCCGGCAUGGUCCCAGCCUCCUGGCUGGCGCCGGCUGGGCAACAUUCCGAGGAGACCGUCCCCUCGGUAAUGGCGAAUGGGACCCA: the self-cleavage turned out to be 0.
GGCCGGCAUGGUCCCAGCCUCCUGGCUGGCGCCGGCUGGGCAACAUUCCGAGGCGACCGUCCCCUCGGUAAUGGCGAAUGGGACCCA: the self-cleavage came to 0.0511.
The figure for GGCCGGCAUGGUCCCAGCCUCCUUGCUGGCGCCGGCUGGGAAACAUUCCGAGGGGACCGUCCCCUCGGUAAUGGCGAAUGGGACCCA is 0.608; for GGCCGGCAUGGUCCCAGCCUCCUUGCUGGCGCCGGCUGGGCAACGUUCCGAGGGGACCGUCCCCUCGGUAAUGGCGAAUGGGACCCA it is 0.373.
Regarding GGCCGGCAUGGUCCCAGCCUCCUGGCUGGCGCCGGCUGGGCAACAUUCCGAGGGGACCGUCCCCUCGGUAAUGGCUAAUGGGACCCA, the self-cleavage was 0.339.
The figure for GGCCGGCAUGGUCCCAGCCUCCUGGCUGGCGCCGGCUGGGCAACAUUCCGAGGGGACCGUCCCCUCGGUAAUGGCAAAUGGGACCCA is 0.101.
The result for GGCCGGCAUGGUCCCAGCCUCCUUGCUGGCGCCGGCUGGGCAACAUUCCGAGGGGACCGUCCCCUCGGUAAUGGCGAUUGGGACCCA reads 0.172.
The result for GGCCGGCAUGGUCCCAGCCUCCUGGCUGGCGCCGUCUGGGCAACAUUCCGAGGGGACCGUCCCCUCGGUAAUGGCGAAUGGGACCCA reads 0.
GGCCGGCAUGGUCCCAGCCUCCUGGCUGGCGCCGGCUGGGCAACAUUCCGAAGGGACCGUCCCCUCGGUAAUGGCGAAUGGGACCCA: the self-cleavage is 0.123.
The figure for GGCCGGCAUGGUCCCAGCCUCCUUGCUGGCGCCGGCUGGGCAACAUUCCGAGGGGACCGUCCCCUCGGUUAUGGCGAAUGGGACCCA is 0.598; for GGCCGGCAUGGUCCCAGCCUCCUUACUGGCGCCGGCUGGGCAACAUUCCGAGGGGACCGUCCCCUCGGUAAUGGCGAAUGGGACCCA it is 0.181; for GGCCGGCAUGGUCCCAGCCUCCUUCCUGGCGCCGGCUGGGCAACAUUCCGAGGGGACCGUCCCCUCGGUAAUGGCGAAUGGGACCCA it is 0.125.
The result for GGCCGGCAUGGUCCCAGCCUCCUUGCUGGCGCCGGCUGGGCAACAUUCUGAGGGGACCGUCCCCUCGGUAAUGGCGAAUGGGACCCA reads 0.758; that for GGCCGGCAUGGUCCCAGCCUCCUGGCUGGCGCCGGCUGGGCAACAUUCCAAGGGGACCGUCCCCUCGGUAAUGGCGAAUGGGACCCA, 0.104.
The figure for GGCCGGCAUGGUCCCAGCCUCCUGGCUGGCGCCGGCUGGGCAACAUUCCGAGGGGACCGUCCCCUCGGUAAUGGCGAAUGAGACCCA is 0.0332.
GGCCGGCAUGGUCCCAGCCUCCUUGCUGACGCCGGCUGGGCAACAUUCCGAGGGGACCGUCCCCUCGGUAAUGGCGAAUGGGACCCA: the self-cleavage turned out to be 0.0415.
The result for GGCCGGCAUGGUCCCAGCCUCCUUGCUGGCGGCGGCUGGGCAACAUUCCGAGGGGACCGUCCCCUCGGUAAUGGCGAAUGGGACCCA reads 0; that for GGCCGGCAUGGUCCCAGCCUCCUGGCUGGCGCCGGCUGGGCAACAUUCCGAGGGGACCGUCCCCUCGGGAAUGGCGAAUGGGACCCA, 0.332.
The result for GGCCGGCAUGGUCCCAGCCUCCUGGCUGGCGCCGGCUGGGCAACAUUCCGAGGGGACCGUCCCCUCGGCAAUGGCGAAUGGGACCCA reads 0.0354; that for GGCCGGCAUGGUCCCAGCCUCCUUGCUGGCGCCGGCUGGGCAACAUUCCGAGGGGACCGUCCCCUCGGUACUGGCGAAUGGGACCCA, 0.453.
The result for GGCCGGCAUGGUCCCAGCCUCCUUGCUGGCGCCGGCUGGGCAACAUUCCGAGGGGACCGUGCCCUCGGUAAUGGCGAAUGGGACCCA reads 0.745.
